Measured values taken from the RNAGym collection of RNA variant scans (doi:10.1073/pnas.2313332121).

B1: TPR t1 (parent)
chain: GACCAAUCUGCCCUCAGAGCUCGAGAACAUCUUCGGAUGCAGAGGAGGCAGGCUUCGGUGGCGCGAUAGCGCCAACGUCCUCAACCUCCAAUGCAUCCCACCACAUGAUGAUGCCUGAAGAGCCUUGGUUUUUUG

Variants of: B1
Assay: polymerase ribozyme fitness, log enrichment relative to wild type (log ratio); higher = more active; in vitro selection for triplet polymerase activity
How it was run: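 Input and output libraries were sequenced on Illumina after a single in vitro selection round, run in triplicate on PCR-built, transcribed mutant libraries of each subunit of a heterodimeric triplet polymerase ribozyme. Selection annealed libraries to a biotinylated primer, the partner subunit and triplets, incubated them frozen at −7 °C, then gel-excised extended constructs for streptavidin-bead capture and RT-PCR. Genotypes with ≥10 input reads and ≥1 read per output were kept. Fitness is the logarithm, taken in base 2, of genotype enrichment divided by wild-type enrichment, using inverse-variance-weighted replicate averages.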

| Variant | polymerase ribozyme fitness (log ratio) |
| --- | --- |
| C11A A46C G63A U131G | -2.39 |
| G10C G60U G135C | -0.497 |
| G10U C72U | -0.415 |
| G10U C72A | -0.423 |
| C11A C40G U129A | -3.42 |
| G10U G110C | -4.86 |
| C11A G93C | -1.54 |
| C11G A83U U106C | -0.637 |
| C11G A16U C28G A121C | -0.982 |
| C11A G42U U106A | -3.49 |
| G10U U14A U116C A121C | -4.9 |
| G10A G51U G71U C101A | -6.07 |
| G10C A18U G93A U130C | -3.83 |
| G10U C73U U92A C101U C104U | -3.23 |
| G10U C20A C40U A46G C62U C82U C114A | -3.36 |
| C11A U116A | -4 |
| G10A A29U | -1.77 |
| G10U A27G U59A C98U | -6.42 |
| C11A A37C A50U | -2.75 |
| G10U U38G U78A G128A | -3.77 |
| G10U G60C G69U A108G | -4.87 |
| G10U A91G C101U | -0.603 |
| C11A A18U A26G G39U G42A G45A G60A U133A | -6.17 |
| G10C G69U G107C G120U | -2.44 |

| Variant | polymerase ribozyme fitness (log ratio) |
| --- | --- |
| G10C U32C G52A G69C U112A G128A | -4.78 |
| C11A U78C | -0.895 |
| C11A C15A G51U G71A C99A G113C | -8.01 |
| C11G A41U G71C A90G G110U G135A | -5.24 |
| C11A A26U C72A | -5.37 |
| C11A C72A C101A U126C | -3.38 |
| G10U C53A C56A G61U A90C | -5.6 |
| G10C A18C C20U C56U | -3.11 |
| G10A G128U | -2.02 |
| G10U C53G C70U C86U A119G | -0.267 |
| G10U G35U A66U G69U G93A | -5.9 |
| C11A C72U | -1.58 |
| G10A C13U G45U G117A | -0.718 |
| C11A A26G G71C C101A C114U | -6.79 |
| G10U G61U | 0.128 |
| C11A G48A C70U C114U | -6.22 |
| G10A G61C U87A C123A | -0.382 |
| G10A A37U G45U C80A G110C | -7.42 |
| C11A C13G G36U C73A | -4.01 |
| G10C C49U C94U | -1.58 |
| C11G A37U G69A A83C A121C | -1.05 |
| C11A C12A C28U C31G G52A G63C G113C U116A | -5.83 |
| U9G U59G | 0.701 |
| G10A C79A C123U | 1.23 |

| Variant | polymerase ribozyme fitness (log ratio) |
| --- | --- |
| C11G A27G G63C G93A | -3.72 |
| C11A A121C | 1.02 |
| C11A C12A U14G A18C G63C C85U A103G U106A G107A A108C C114U G117C | -6.98 |
| G10A G69U C79U C98A | -2 |
| G10A G69U G93A G110A A121U U132C | 0.47 |
| C11A A100C | -2.81 |
| G10A G60C C124A | 1.12 |
| C11A C73U C76A U78G U131A | -4.06 |
| C11A U133A | -2.64 |
| G10A A16U A66C C88A U92C G120U | -3.94 |
| G10A G48A G63U C82G A91U G117C | -5.31 |
| C11A A27G | -6.66 |
| G10A C13U C86G | -0.113 |
| G10U G61A C123A U126G | -1.39 |
| C11A C56A G69A A84G A121C | -4.27 |
| G10U C15G G19U G63A G113U C124A | -5.07 |
| G10C U38A G63C U130G | -2.42 |
| G10A U33C A90G A118G | -6.66 |
| G10A G19A C114U U133G | 0.465 |
| G10U C62U C72A C88U C89G A121G U132C | -1.87 |
| G10C U38G G42C A121U | -1.8 |
| C11G A121C | 1.5 |
| C11G A121G | 1.78 |
| U9G U109A | -3.09 |

| Variant | polymerase ribozyme fitness (log ratio) |
| --- | --- |
| C11A C13G C115A | -6.59 |
| C11G A41G C73G | -0.55 |
| C11A G39A | -2.5 |
| C11A G69U C97A C101A C104A | -3.94 |
| G10C G61U | -1.1 |
| C11A G113A | -3.12 |
| C11A C40A C49G C94U | -3.79 |
| G10C C62U | -0.917 |
| G10U C49U | -0.491 |
| G10A U96G | -0.411 |
| G10A A16C A50G A95C | -3.07 |
| G10C U92C G113U | -4.69 |
| C11A C70U G117A | -6.1 |
| G10A G19C G63C U112G U133G | -5.97 |
| C11A G39A U54A C72A | -1.51 |
| G10U G60C G122A | 0.255 |
| C11A G45U G71A A121C U132A | -0.447 |
| G10U A18C | -2.58 |
| C11G A27G C85A U125A | -2.01 |
| C11A C49A U59A A91G | -2.95 |
| C11A U106A G110U | -1.4 |
| C11A G60U A83U | -2.13 |
| G10A C12G U21C U106G C114G U116A | -6.06 |
| C11A G60U U112A A118U | 0.776 |

| Variant | polymerase ribozyme fitness (log ratio) |
| --- | --- |
| G10A U33C C86A A111U | -6.34 |
| G10A C56A | 0.127 |
| G10U G69U | 0.293 |
| C11G A66U | -0.995 |
| G10A G52A G60A C79A C115A | -2.07 |
| C11A G47U G71A A83G G107C C124U | -7.17 |
| G10A G52U C72G C99U | -4.47 |
| G10C G36A | -1.22 |
| G10U G60C C79U G120C | 0.981 |
| C11A C15G U21G G63U A90U G93U C115U C124U G127U | -6.26 |
| C11A A50G U126A | -3.95 |
| C11G A27U C49A A84U C114A G120A U125A | -5.59 |
| G10C A41C G48A A74U C101U | -3.49 |
| G10A C49A U78C U116A G120U | -0.56 |
| G10C C15U A41C C53G C89U | -3.28 |
| G10A C13U G42C A46G C101U G110C | -6.91 |
| G10A G23A | -4.78 |
| C11A C49U C73A C86U A95G U106G C123U | -0.375 |
| C11A C49A G69A G113A G128C | -6.11 |
| G10C G51A U106A U112A | -5.36 |
| G10U C12A G60A | -0.594 |
| G10U C12U C22A C56U U112C | -1.17 |
| G10C G39A G61A | -1.27 |
| C11A U87A | -1.66 |

| Variant | polymerase ribozyme fitness (log ratio) |
| --- | --- |
| C11A C28G G77U C98U G110U G135U | -3.7 |
| G10U G48A G93A C114G | -5.11 |
| G10U A27G U106C C123A | 0.556 |
| G10C G36A G71A | -2.47 |
| G10C A27U U87G | -3.55 |
| G10C C12A A18C G42U G71A G117U G122U U130G | -3.23 |
| G10C G110C | -6.69 |
| G10A C85U | -0.189 |
| G10U G44C C88U A105G G120C | -3.52 |
| G10A G19U G61U | -4.88 |
| G10A U112G | 1.07 |
| G10C C76G | -1.17 |
| G10A A95C | -0.471 |
| G10C C15G G69C | -4.46 |
| G10A C73A | -0.58 |
| G10U G77A U106G | -2.38 |
| C11G A37C C88G | -1.94 |
| U9G U87A A100C | -0.443 |
| G10U C94U | -0.599 |
| G10C U112G | 0.149 |
| G10C A37C A66U | -2.37 |
| C11G A41U G47C U59A | -3.12 |
| G10U G63U | -1.31 |
| G10A C13G G69A U78C | -3.65 |

| Variant | polymerase ribozyme fitness (log ratio) |
| --- | --- |
| G10A C15A C94A | -3.08 |
| C11G A50C U125A | -0.245 |
| G10A C13U A27U | -2.05 |
| C11A C64U U78C C80U A83G | -4.97 |
| G10A G45U | -1.26 |
| C11A C94A U116A G120C | -0.809 |
| G10A A43C C123A U125C | -1.73 |
| G10U C28G G60A C85A U131G | -4.5 |
| G10A C97A | -4.44 |
| G10U U112A C114U | -1.01 |
| G10A G61A | 0.248 |
| G10A C73U A84U G110U | -2.38 |
| G10C U14A G48A G110A | -3.91 |
| G10C C12G C72A A105U | -3.93 |
| G10A U54A A119G | 1 |
| C11A C70A | -2.06 |
| C11G A41C | -0.501 |
| G10A A74G C97U C101U A105G U130G | -5.19 |
| G10C A16G A26U C72U C98U C115G | -6.74 |
| G10A G52U C56G C98U G113U | -6.91 |
| C11A A27G A41U C49G G61U | -3.34 |
| G10A G19A C70A U96A C104U | -6.15 |
| C11G A29U A46G C72A A100C A119U | -3.42 |
